Experimental data taken from patent publication EP4554620A1 (dated 2025).

Tests used:
[1] = molecular target: T1, Human TIGIT residues 23-128 LEU65A mutant (human, UniProt Q495A1 23-128); experiment: SPR, TIGIT alanine mutants
T1 construct: not shown: C-terminal HIS tag
T1 chain: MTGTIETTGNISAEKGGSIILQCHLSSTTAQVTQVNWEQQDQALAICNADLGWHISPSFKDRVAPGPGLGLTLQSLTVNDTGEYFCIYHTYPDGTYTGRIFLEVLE

[2] = molecular target: T2, Human TIGIT residues 23-128 ILE68A mutant (human, UniProt Q495A1 23-128); experiment: SPR, TIGIT alanine mutants
T2 construct: not shown: C-terminal HIS tag
T2 chain: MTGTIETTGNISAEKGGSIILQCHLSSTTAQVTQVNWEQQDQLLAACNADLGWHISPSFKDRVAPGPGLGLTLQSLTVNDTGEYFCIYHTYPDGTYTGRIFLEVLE

B1: Tiragolumab (antibody, V domains shown)
VH: EVQLQQSGPGLVKPSQTLSLTCAISGDSVSSNSAAWNWIRQSPSRGLEWLGKTYYRFKWYSDYAVSVKGRITINPDTSKNQFSLQLNSVTPEDTAVFYCTRESTTYDLLAGPFDYWGQGTLVTVSS
VL: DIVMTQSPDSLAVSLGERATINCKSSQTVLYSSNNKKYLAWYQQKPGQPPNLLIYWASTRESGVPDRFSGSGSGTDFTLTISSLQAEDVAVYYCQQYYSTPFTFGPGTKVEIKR
fold lower binding affinity against WT TIGIT [1]: ~25 fold
fold lower binding affinity against WT TIGIT [2]: ~40 fold
